Laboratory results taken from paper doi:10.1101/402990 (bioRxiv, 2018).

Target: T1, 6His-Tea3 (S. pombe, UniProt O14248 1-1125)
T1 sequence (looked up): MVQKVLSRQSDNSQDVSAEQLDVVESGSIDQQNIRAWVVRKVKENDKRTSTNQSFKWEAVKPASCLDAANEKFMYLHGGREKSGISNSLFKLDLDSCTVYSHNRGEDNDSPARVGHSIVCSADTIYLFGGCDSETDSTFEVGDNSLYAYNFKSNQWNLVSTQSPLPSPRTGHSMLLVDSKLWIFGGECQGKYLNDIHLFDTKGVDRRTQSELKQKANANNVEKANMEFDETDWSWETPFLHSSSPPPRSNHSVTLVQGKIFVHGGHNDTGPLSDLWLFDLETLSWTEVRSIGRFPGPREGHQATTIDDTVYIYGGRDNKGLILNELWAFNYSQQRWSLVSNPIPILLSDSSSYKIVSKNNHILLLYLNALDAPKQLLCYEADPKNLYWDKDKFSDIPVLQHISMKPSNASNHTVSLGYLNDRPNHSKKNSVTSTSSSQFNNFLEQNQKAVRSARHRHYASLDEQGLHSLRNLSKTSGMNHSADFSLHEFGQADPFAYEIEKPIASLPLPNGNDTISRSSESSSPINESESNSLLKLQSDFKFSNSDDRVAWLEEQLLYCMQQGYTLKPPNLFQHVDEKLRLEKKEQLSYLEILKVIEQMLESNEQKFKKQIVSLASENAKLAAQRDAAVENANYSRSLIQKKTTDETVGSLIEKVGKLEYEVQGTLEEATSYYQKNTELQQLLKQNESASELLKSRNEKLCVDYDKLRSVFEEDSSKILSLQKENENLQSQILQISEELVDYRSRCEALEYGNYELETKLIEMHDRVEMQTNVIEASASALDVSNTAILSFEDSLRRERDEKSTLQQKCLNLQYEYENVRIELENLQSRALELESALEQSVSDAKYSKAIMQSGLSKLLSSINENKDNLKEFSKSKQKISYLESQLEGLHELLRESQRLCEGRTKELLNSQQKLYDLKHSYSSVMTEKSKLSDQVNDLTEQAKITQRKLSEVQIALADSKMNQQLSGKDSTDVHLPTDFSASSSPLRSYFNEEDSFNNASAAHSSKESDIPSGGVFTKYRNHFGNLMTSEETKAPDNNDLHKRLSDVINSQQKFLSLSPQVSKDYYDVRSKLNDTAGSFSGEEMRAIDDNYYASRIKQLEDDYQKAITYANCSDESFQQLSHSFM
Assay: pull-down

- binding result: binds
B1: GST-Shk1 (enzyme, S. pombe, UniProt P50527 1-658, looked up)
chain: MERGTLQPRKKAPNGYGITPIVAHKTGEPVRYEVEDDLRKLKPSRTAPKPPAINTNLAEDTFSGFPLSQSRTTVSRVSLGSRQHSSSSIRKLQTNVSDVRSYDERNQKKSAFENFVSSMSSFLTGGGSSPTSSYGSGSASPRKSTVISSPFDPKHVTHVGFNYDTGEFTGMPTEWQALLKVSGITKSEQVQHPQAVLDAMAFYSQSKKYLEEGAKPPFPRESTEKPLLSVSALSSSSHLQPTSATSSSSRLYPSRPAPTPPASSSSSPLLSSQTVKTTTSNASRQPSPLVSSKSTDNIIRSHSPVLLTPQTLSTSETKHIRPNNSTPYQRRAETSTKPKAVATPQKVEAPSAPRLQKRAPRQQSNDSAVLAKLQSICNPKNPTLLYRNFVKIGQGASGDVYSARQVGTNLSVAIKKMNINQQPKKEFIVNEILVMKSHHHKNIVNFIDTFFYKSELWMVMEYMRGGSLTEVVTNNTLSEGQIAAICKETLEGLQHLHENGIVHRDIKSDNILLSLQGDIKLTDFGFCAQIDSNMTKRTTMVGTPYWMAPEVVTRKEYGFKVDVWSLGIMAIEMVEGEPPYLNENPLRALYLIATIGTPKISRPELLSSVFHDFLSKSLTVNPKQRPSSGELLRHPFLKQAVPVSSLIPLIKSIHHSGK
